In US20230313305A1, “METHODS AND USES OF INFLAMMATORY BOWEL DISEASE BIOMARKERS” (Washington University, priority 2017, published 2023):

Tested on: latent TGFβ
Experiment: Cleavage of latent TGFβ by tPA in cell free assay
Type: biochemical
Conditions: cell free assay (FIG. 22)

B1: tPA: serine protease that converts plasminogen to plasmin (protein, UniProt P00750 36-562, looked up)
Tissue-type plasminogen …: SYQVICRDEKTQMIYQQHQSWLRPVLRSNRVEYCWCNSGRAQCHSVPVKSCSEPRCFNGGTCQQALYFSDFVCQCPEGFAGKCCEIDTRATCYEDQGISYRGTWSTAESGAECTNWNSSALAQKPYSGRRPDAIRLGLGNHNYCRNPDRDSKPWCYVFKAGKYSSEFCSTPACSEGNSDCYFGNGSAYRGTHSLTESGASCLPWNSMILIGKVYTAQNPSAQALGLGKHNYCRNPDGDAKPWCHVLKNRRLTWEYCDVPSCSTCGLRQYSQPQFRIKGGLFADIASHPWQAAIFAKHRRSPGERFLCGGILISSCWILSAAHCFQERFPPHHLTVILGRTYRVVPGEEEQKFEVEKYIVHKEFDDDTYDNDIALLQLKSDSSRCAQESSVVRTVCLPPADLQLPDWTECELSGYGKHEALSPFYSERLKEAHVRLYPSSRCTSQHLLNRTVTDNMLCAGDTRSGGPQANLHDACQGDSGGPLVCLNDGRMTLVGIISWGLGCGQKDVPGVYTKVTNYLDWIRDNMRP
cleavage of latent TGFβ: can directly and indirectly cleave
